For this assay, the target named is T1, GST-BAK1KD (cytoplasmic kinase domain of BAK1, AAs 250-615, fused to GST) (Arabidopsis thaliana, UniProt Q94F62 250-615).
T1 construct: BRASSINOSTEROID …1-ASSOCIATED KINASE1 (BAK1), Arabidopsis thaliana, cytoplasmic kinase domain, amino acids 250-615; Cloned into the EcoRI/SalI site of pGEX-4T-1; source: E. coli BL21(DE3), purified; not shown: GST, N-terminal, kept
T1 sequence (looked up): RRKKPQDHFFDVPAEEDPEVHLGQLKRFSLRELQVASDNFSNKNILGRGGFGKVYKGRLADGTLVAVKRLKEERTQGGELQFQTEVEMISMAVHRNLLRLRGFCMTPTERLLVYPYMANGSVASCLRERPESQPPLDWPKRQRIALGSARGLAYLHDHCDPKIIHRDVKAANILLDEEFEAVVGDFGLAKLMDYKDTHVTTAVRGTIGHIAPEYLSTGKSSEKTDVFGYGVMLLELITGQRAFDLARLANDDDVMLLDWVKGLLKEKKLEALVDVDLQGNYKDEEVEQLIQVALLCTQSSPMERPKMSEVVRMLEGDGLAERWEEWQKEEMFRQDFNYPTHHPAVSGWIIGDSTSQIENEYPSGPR
Nature of the assay: pull-down; 1 μg MBP or MBP-LecRK-VI.2KD incubated with 1 μg GST-BAK1KD in 20 mM Tris-HCl, 200 mM NaCl, 1 mM EDTA, pH 7.4, 4 °C; pulled down with amylose resin beads; washes with 0.6% Triton X-100; immunoblot with anti-MBP and anti-GST. To be noted: both partners purified. On the technique in general: A western blot detects proteins with antibodies after separation by electrophoresis.

This is an account of results in PMC6805918, “Extracellular pyridine nucleotides trigger plant systemic immunity through a lectin receptor kinase/BAK1 complex” (Nature Communications, 2019).

B1: MBP-LecRK-VI.2KD (cytoplasmic kinase domain of LecRK-VI.2, AAs 331-682, fused to maltose-binding protein) (domain or fragment, Arabidopsis thaliana, UniProt Q9M021 331-682, looked up)
chain: FVMYKKRLGQEETLEDWEIDHPRRLRYRDLYVATDGFKKTGIIGTGGFGTVFKGKLPNSDPIAVKKIIPSSRQGVREFVAEIESLGKLRHKNLVNLQGWCKHKNDLLLIYDYIPNGSLDSLLYTVPRRSGAVLSWNARFQIAKGIASGLLYLHEEWEKIVIHRDVKPSNVLIDSKMNPRLGDFGLARLYERGTLSETTALVGTIGYMAPELSRNGNPSSASDVFAFGVLLLEIVCGRKPTDSGTFFLVDWVMELHANGEILSAIDPRLGSGYDGGEARLALAVGLLCCHQKPASRPSMRIVLRYLNGEENVPEIDDEWGYSKSSRSEFGSKLVGYVSSTSITRVSSTSRISQ
notes: lectin receptor kinase LecRK-VI.2, Arabidopsis thaliana, gene At5g01540, cytoplasmic kinase domain, amino acids 331-682; Cloned into the BamHI/SalI site of pMAL-p2X; source: E. coli BL21(DE3), purified; not shown: MBP, N-terminal, kept
For B1, the binding result is “binds”.
